In publication PMC3899043, “Expression Pattern and Biochemical Properties of Zebrafish N-Acetylglutamate Synthase” (PLoS ONE, 2014):
Where two headings read alike, the source gives them in different places. Each block holds one molecule with its values, some of them ahead of it.

Columns and labels:
zfNAGS-M = molecular target: T1, zfNAGS-M (Danio rerio, UniProt E7FCP8); assay: enzymatic activity assay, Michaelis-Menten fit; format: biochemical; settings: no L-arginine
T1 construct: gene nags; mature form, predicted mitochondrial targeting signal removed; N-terminus at Met47 of preprotein; N-terminal polyhistidine tag kept (pET15b); E. coli C41(DE3); predicted 55,498 Da; tetramer
T1 sequence (E7FCP8 46-527): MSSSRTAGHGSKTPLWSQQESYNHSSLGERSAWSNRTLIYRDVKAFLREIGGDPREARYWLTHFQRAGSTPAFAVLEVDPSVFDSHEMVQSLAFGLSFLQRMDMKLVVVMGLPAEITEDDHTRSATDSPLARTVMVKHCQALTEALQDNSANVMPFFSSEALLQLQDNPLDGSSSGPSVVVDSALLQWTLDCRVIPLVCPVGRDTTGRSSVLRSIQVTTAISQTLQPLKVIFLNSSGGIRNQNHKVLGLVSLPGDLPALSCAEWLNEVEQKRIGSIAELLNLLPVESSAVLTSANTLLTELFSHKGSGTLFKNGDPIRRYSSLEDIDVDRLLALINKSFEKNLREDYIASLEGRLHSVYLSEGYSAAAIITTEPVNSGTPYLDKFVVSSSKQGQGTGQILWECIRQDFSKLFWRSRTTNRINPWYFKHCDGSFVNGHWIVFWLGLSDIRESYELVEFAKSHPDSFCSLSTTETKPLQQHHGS
Description: enzymatic activity assay, Michaelis-Menten fit on zfNAGS-M

zfNAGS-C = molecular target: T2, zfNAGS-C (Danio rerio, UniProt E7FCP8); assay: thermofluor with SYPRO Orange; format: binding; settings: L-arginine up to 10 mM; no substrates; pH 7.5 phosphate
T2 construct: gene nags; conserved segment (AAK and NAT domains), targeting signal and variable segment removed; N-terminus at Gly73 of preprotein; N-terminal polyhistidine tag kept (pET15b); E. coli C41(DE3); predicted 52,752 Da
T2 sequence (E7FCP8 73-527): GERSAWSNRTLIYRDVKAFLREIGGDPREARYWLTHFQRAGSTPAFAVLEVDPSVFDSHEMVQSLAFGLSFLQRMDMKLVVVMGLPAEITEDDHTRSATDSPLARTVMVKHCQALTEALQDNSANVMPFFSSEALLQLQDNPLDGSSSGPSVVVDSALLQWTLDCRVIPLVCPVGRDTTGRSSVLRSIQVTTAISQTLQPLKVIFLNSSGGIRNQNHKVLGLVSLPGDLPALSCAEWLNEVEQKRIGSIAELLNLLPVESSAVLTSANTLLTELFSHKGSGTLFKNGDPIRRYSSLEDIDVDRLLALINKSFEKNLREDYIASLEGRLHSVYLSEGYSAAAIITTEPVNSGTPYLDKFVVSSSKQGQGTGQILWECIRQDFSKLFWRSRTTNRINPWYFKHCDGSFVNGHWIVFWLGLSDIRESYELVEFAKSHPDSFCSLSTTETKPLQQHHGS

[1] = molecular target: mature zebrafish N-acetylglutamate synthase (zfNAGS-M) (zebrafish (Danio rerio)) (UniProt E7FCP8); assay: SEC; analytical gel chromatography, Superdex 200 HR 10/30, room temperature, 50 mM potassium phosphate pH 7.5, 300 mM KCl, 20% glycerol, 10 mM beta-mercaptoethanol, 0.006% Triton X-100, no L-arginine; 100 ul loaded at 0.5-1.3 mg/ml (zfNAGS-M) or 0.5-2.0 mg/ml (zfNAGS-C)
[2] = substrate: CC(=O)SCCNC(=O)CCNC(=O)[C@H](O)C(C)(C)COP(=O)(O)OP(=O)(O)OC[C@H]1O[C@@H](n2cnc3c(N)ncnc32)[C@H](O)[C@@H]1OP(=O)(O)O; assay: enzymatic activity assay, Michaelis-Menten fit; format: biochemical, Danio rerio; settings: 15 mM L-glutamate; no L-arginine
Description: (§1) enzymatic activity assay, Michaelis-Menten fit on zfNAGS-C

[3] = substrate: N[C@@H](CCC(=O)O)C(=O)O; assay: enzymatic activity assay, Michaelis-Menten fit; format: biochemical, Danio rerio; settings: 4 mM AcCoA; no L-arginine
Description: as §1

Km (zfNAGS-M; 15 mM L-glutamate, read-out: AcCoA / Km ^app): 220 ± 30 µM
Molecule: CC(=O)SCCNC(=O)CCNC(=O)[C@H](O)C(C)(C)COP(=O)(O)OP(=O)(O)OC[C@H]1O[C@@H](n2cnc3c(N)ncnc32)[C@H](O)[C@@H]1OP(=O)(O)O [AcCoA]

Molecule: N=C(N)NCCC[C@H](N)C(=O)O [L-arginine]
thermofluor with SYPRO Orange (zfNAGS-C): Addition of L-arginine to both zfNAGS-M and zfNAGS-C resulted in changes

Km (zfNAGS-M; 4 mM AcCoA, read-out: Glutamate / Km ^app): 1130 ± 130 µM
Molecule: N[C@@H](CCC(=O)O)C(=O)O [L-glutamate]

stoichiometry N [1]: 4
Molecule: mature zebrafish N-acetylglutamate synthase (zfNAGS-M) (from UniProt E7FCP8 47-527) (enzyme)

B1: zfNAGS-C (Danio rerio) (protein)
chain: T2 sequence (E7FCP8 73-527)
notes: conserved segment (AAK and NAT domains), targeting signal and variable segment removed; N-terminus at Gly73 of preprotein; N-terminal polyhistidine tag kept (pET15b); E. coli C41(DE3); predicted 52,752 Da
Km [2]: 230 ± 60 µM
Vmax [2]: 32.2 µmol/min/mg
Km [3]: 1120 ± 210 µM
Vmax [3]: 39.5 µmol/min/mg
